The values below come from PMC12412624, “Engineered Cas12j‐8 is a Versatile Platform for Multiplexed Genome Modulation in Mammalian Cells”.

Residue numbers refer to the chain shown, from its start.

T1: Cas12j-8 E258R+D313R+D495R+D527R+E547R (bacteriophage (metagenome), E258R;D313R;D495R;D527R;E547R)
T1 chain: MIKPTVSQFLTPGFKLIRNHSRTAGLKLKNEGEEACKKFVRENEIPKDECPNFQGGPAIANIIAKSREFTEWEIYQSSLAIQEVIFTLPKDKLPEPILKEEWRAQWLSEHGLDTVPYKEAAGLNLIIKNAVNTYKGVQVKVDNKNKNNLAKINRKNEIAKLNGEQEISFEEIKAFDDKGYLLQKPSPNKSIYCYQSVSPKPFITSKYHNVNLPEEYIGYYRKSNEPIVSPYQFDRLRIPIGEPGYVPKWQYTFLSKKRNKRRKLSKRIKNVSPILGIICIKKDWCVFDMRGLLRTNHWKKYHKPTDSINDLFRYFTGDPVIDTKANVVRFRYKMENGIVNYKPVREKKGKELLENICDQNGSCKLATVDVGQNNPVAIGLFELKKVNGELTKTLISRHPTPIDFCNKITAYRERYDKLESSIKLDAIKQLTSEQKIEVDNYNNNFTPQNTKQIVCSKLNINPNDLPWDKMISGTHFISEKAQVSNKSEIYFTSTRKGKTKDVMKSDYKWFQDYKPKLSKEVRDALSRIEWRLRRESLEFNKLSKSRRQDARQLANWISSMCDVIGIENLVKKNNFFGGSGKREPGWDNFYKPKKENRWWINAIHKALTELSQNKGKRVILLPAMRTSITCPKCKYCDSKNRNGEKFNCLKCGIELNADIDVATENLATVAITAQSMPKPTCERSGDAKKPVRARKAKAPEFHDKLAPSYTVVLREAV

T2: Cas12j-8 WT (bacteriophage (metagenome))
T2 chain: T1 chain with R258E, R313D, R495D, R527D, R547E

B1: cxcr4site8 (mixed)
RNA: CUUUCAAGACUAAUAGAUUGCUCCUUACGAGGAGACAGCACAUCAUGGUUGGCCUU
DNA 1: TTCAGCACATCATGGTTGGCCTT
DNA 2: AAGGCCAACCATGATGTGCTGAA
B2: ccr5site9 (mixed)
RNA: CUUUCAAGACUAAUAGAUUGCUCCUUACGAGGAGACAGAUCUGGUAAAGAUGAUUC
DNA 1: TTGAGATCTGGTAAAGATGATTC
DNA 2: GAATCATCTTTACCAGATCTCAA
B3: alas1site3 (mixed)
RNA: CUUUCAAGACUAAUAGAUUGCUCCUUACGAGGAGACGUGAUGAGGGAGUCUGAAUA
DNA 1: TTGGTGATGAGGGAGTCTGAATA
DNA 2: TATTCAGACTCCCTCATCACCAA
B4: sod1site5 (mixed)
RNA: CUUUCAAGACUAAUAGAUUGCUCCUUACGAGGAGACAUUAUUAGGCAUGUUGGAGA
DNA 1: TTCATTATTAGGCATGTTGGAGA
DNA 2: TCTCCAACATGCCTAATAATGAA
B5: cxcr4site5 (mixed)
RNA: CUUUCAAGACUAAUAGAUUGCUCCUUACGAGGAGACGGAACUUCCUAUGCAAGGCA
DNA 1: TTGGGAACTTCCTATGCAAGGCA
DNA 2: TGCCTTGCATAGGAAGTTCCCAA
B6: cd274site6 (mixed)
RNA: CUUUCAAGACUAAUAGAUUGCUCCUUACGAGGAGACGUUGUGGAUCCAGUCACCUC
DNA 1: TTGGTTGTGGATCCAGTCACCTC
DNA 2: GAGGTGACTGGATCCACAACCAA
B7: cishsite2 (mixed)
RNA: CUUUCAAGACUAAUAGAUUGCUCCUUACGAGGAGACGCUCACUCUCUGUCUGGGCU
DNA 1: TTGGCTCACTCTCTGTCTGGGCT
DNA 2: AGCCCAGACAGAGAGTGAGCCAA
B8: apobsite10 (mixed)
RNA: CUUUCAAGACUAAUAGAUUGCUCCUUACGAGGAGACGCAGGCGACCAGUGGGCGAG
DNA 1: TTGGCAGGCGACCAGTGGGCGAG
DNA 2: CTCGCCCACTGGTCGCCTGCCAA
B9: vegfasite3 (mixed)
RNA: CUUUCAAGACUAAUAGAUUGCUCCUUACGAGGAGACUGCUGUCUUGGGUGCAUUGG
DNA 1: TTCTGCTGTCTTGGGTGCATTGG
DNA 2: CCAATGCACCCAAGACAGCAGAA
B10: alas1site9 (mixed)
RNA: CUUUCAAGACUAAUAGAUUGCUCCUUACGAGGAGACGCAUGACUCCAUCCCGAUCC
DNA 1: TTGGCATGACTCCATCCCGATCC
DNA 2: GGATCGGGATGGAGTCATGCCAA
B11: pcsk9site5 (mixed)
RNA: CUUUCAAGACUAAUAGAUUGCUCCUUACGAGGAGACUGUCACAGAGUGGGACAUCA
DNA 1: TTGTGTCACAGAGTGGGACATCA
DNA 2: TGATGTCCCACTCTGTGACACAA
B12: tgfbr2site8 (mixed)
RNA: CUUUCAAGACUAAUAGAUUGCUCCUUACGAGGAGACCCAGGUUGAACUCAGCUUCU
DNA 1: TTCCCAGGTTGAACTCAGCTTCT
DNA 2: AGAAGCTGAGTTCAACCTGGGAA
B13: apobsite9 (mixed)
RNA: CUUUCAAGACUAAUAGAUUGCUCCUUACGAGGAGACCAAGCAGAAGCCAGAAGUGA
DNA 1: TTGCAAGCAGAAGCCAGAAGTGA
DNA 2: TCACTTCTGGCTTCTGCTTGCAA
B14: tigitsite4 (mixed)
RNA: CUUUCAAGACUAAUAGAUUGCUCCUUACGAGGAGACUAGGACCUCCAGGAAGAUUC
DNA 1: TTCTAGGACCTCCAGGAAGATTC
DNA 2: GAATCTTCCTGGAGGTCCTAGAA
B15: cishsite3 (mixed)
RNA: CUUUCAAGACUAAUAGAUUGCUCCUUACGAGGAGACACUGACAGCGUGAACAGGUA
DNA 1: TTCACTGACAGCGTGAACAGGTA
DNA 2: TACCTGTTCACGCTGTCAGTGAA
B16: ccr5site4 (mixed)
RNA: CUUUCAAGACUAAUAGAUUGCUCCUUACGAGGAGACCUUCUUACUGUCCCCUUCUG
DNA 1: TTCCTTCTTACTGTCCCCTTCTG
DNA 2: CAGAAGGGGACAGTAAGAAGGAA
B17: apobsite4 (mixed)
RNA: CUUUCAAGACUAAUAGAUUGCUCCUUACGAGGAGACGUGGCAAAUCCUCCAGAGAU
DNA 1: TTGGTGGCAAATCCTCCAGAGAT
DNA 2: ATCTCTGGAGGATTTGCCACCAA
B18: cd274site9 (mixed)
RNA: CUUUCAAGACUAAUAGAUUGCUCCUUACGAGGAGACCUCAGGAUCUAAUCUCCUAA
DNA 1: TTCCTCAGGATCTAATCTCCTAA
DNA 2: TTAGGAGATTAGATCCTGAGGAA
B19: ccr5site5 (mixed)
RNA: CUUUCAAGACUAAUAGAUUGCUCCUUACGAGGAGACGAAAUACAAUGUGUCAACUC
DNA 1: TTGGAAATACAATGTGTCAACTC
DNA 2: GAGTTGACACATTGTATTTCCAA
B20: angptl3site12 (mixed)
RNA: CUUUCAAGACUAAUAGAUUGCUCCUUACGAGGAGACCAGUCUUCCAACUCAAUUCG
DNA 1: TTCCAGTCTTCCAACTCAATTCG
DNA 2: CGAATTGAGTTGGAAGACTGGAA
B21: tcfsite3 (mixed)
RNA: CUUUCAAGACUAAUAGAUUGCUCCUUACGAGGAGACCUAAACCAAGUCCCAGACAU
DNA 1: TTCCTAAACCAAGTCCCAGACAT
DNA 2: ATGTCTGGGACTTGGTTTAGGAA
B22: ccr5site10 (mixed)
RNA: CUUUCAAGACUAAUAGAUUGCUCCUUACGAGGAGACCAUACAGUCAGUAUCAAUUC
DNA 1: TTCCATACAGTCAGTATCAATTC
DNA 2: GAATTGATACTGACTGTATGGAA
B23: vegfasite4 (mixed)
RNA: CUUUCAAGACUAAUAGAUUGCUCCUUACGAGGAGACUUGUGCUGUAGGAAGCUCAU
DNA 1: TTGTTGTGCTGTAGGAAGCTCAT
DNA 2: ATGAGCTTCCTACAGCACAACAA
B24: tcfsite8 (mixed)
RNA: CUUUCAAGACUAAUAGAUUGCUCCUUACGAGGAGACCAGGCUCUGACUCAGGGAAG
DNA 1: TTGCAGGCTCTGACTCAGGGAAG
DNA 2: CTTCCCTGAGTCAGAGCCTGCAA

The target of one data set is T1, Cas12j-8 E258R+D313R+D495R+D527R+E547R. Description: HEK293T cells. The following applies: tags: NLS.
In turn, B1 showed an indel frequency of 36.5 % indels.

For the molecule B2, the indel frequency is 72.7 % indels.

As to B3, the indel frequency worked out at 34.2 % indels.

In the case of B4, the indel frequency was found to be 59.7 % indels.

B5 came in with an indel frequency of 61.4 % indels.

The molecule B6 showed an indel frequency of 59.2 % indels.

For the molecule B7, the indel frequency worked out at 16.3 % indels.

In turn, B8 registered an indel frequency of 22.1 % indels.

In the case of B9, the indel frequency stood at 77.4 % indels.

B10 came in with an indel frequency of 44 % indels.

Consider B11, for which the indel frequency was 61.2 % indels.

B12 had an indel frequency of 51.6 % indels.

In turn, B13 had an indel frequency of 15.6 % indels.

B14 displayed an indel frequency of 28.3 % indels.

B15 gave an indel frequency of 43.1 % indels.

Consider B16, for which the indel frequency is 68.7 % indels.

Regarding B17, the indel frequency is 27.8 % indels.

For the molecule B18, the indel frequency is 34.3 % indels.

B19 registered an indel frequency of 54 % indels.

B20 came in with an indel frequency of 22.2 % indels.

A further data set has as its target T2, Cas12j-8 WT. Description: HEK293T cells. The following applies: tags: NLS.
B1 returned an indel frequency of 10.9 % indels.

In turn, B2 had an indel frequency of 45.4 % indels.

In the case of B3, the indel frequency came out at 10.1 % indels.

As for B4, the indel frequency was determined as 16.5 % indels.

Consider B5, for which the indel frequency was found to be 35.6 % indels.

As to B6, the indel frequency is 21 % indels.

In turn, B8 returned an indel frequency of 8.3 % indels.

Molecule B9 came in with an indel frequency of 44.7 % indels.

Turning to B10, the indel frequency is 20 % indels.

In turn, B11 returned an indel frequency of 25.8 % indels.

Turning to B21, the indel frequency worked out at 3.82 % indels.

The molecule B12 displayed an indel frequency of 14.8 % indels.

B13 displayed an indel frequency of 1.17 % indels.

The molecule B15 displayed an indel frequency of 2.97 % indels.

For the molecule B22, the indel frequency stood at 4.92 % indels.

B16: the indel frequency was found to be 28.2 % indels.

Turning to B23, the indel frequency stood at 5.55 % indels.

B17 yielded an indel frequency of 11.9 % indels.

For the molecule B18, the indel frequency stood at 9.46 % indels.

B19 returned an indel frequency of 12.1 % indels.

Take B24: the indel frequency came out at 2.92 % indels.
